Experimental data reported in the DeepSol protein solubility set.

Assay: soluble on expression in E. coli; label from the status in PepcDB or PDB records

| Sequence | soluble on expression in E. coli |
| --- | --- |
| MSLKNPLKLCGIEFTEYATPDSDFMEKAFYGFGFSKTKKMKGRDVEYFNQNDIHFLLNKEKAGFSKEFAKSHGPAICSMGWRVEDANFAFNEAVKRGAKSAENEANKLPYPAIFGIGDSLIYFIENFAKTGTNKGLIYDTDFEDIAEPVIVEDKGFLAVDHLTNNVYQGTMHKWADFYKDVFGFTEVRYFDIKGVKTALISYALASPCGKFCIPINEGKGSKDNQIDEYLNEYNGPGVQHLAFITDDLVGSLDKLDRSIVDTLNIVPEYYDEIFDRVPWVKEDKARIKEHQILVDSQSEDSYLLQIFTKNLFGPIFIEMIQRVDDQGFGEGNFSTLFKSIELNQMERGEGHHHHHH | soluble |
| SEFVLKHTAFAHLREVGSFPCTLNPHEAESLALVGAMIDQVLELHPGAQRLHIGCDEVYYLGEGEASRRWLQQEQNSTGKLCLSHMRAVASGVKARRPSVTPLVWDDMLRDLPEDQLAASGVPQLVEPVLWDYTADLDVHGKVLLMQKYRRCGFPQLWAASAFKGATGPSQAVPPVEHHLRNHVQWLQVAGSGPTDSLQGIILTGWQRYDHYSVLCELLPAGVPSLAACLQLLLRGGFDEDVKAKVENLLGISSLEKTDPVREGAGSFPGSNILALVTQVSLHLRSSVDALLEGNRYVTGWFSPYHRQRKLIHPVMVQHIQPAALSLLAQWSTLVQELEAALQLAFYPDAVEEWLEENVHPSLQRLQALLQDLSEVSAPPLPPTSPGRDVAQDP | not soluble |
| MGHHHHHHSHMFMREIELKGHIIDSFILAKVFDRTLELGGDYKVLEFDIGKKKIDTSYAKLLISGDTQQHLDQILEELQNVGANIPEIENANLKPALKDSVLPDGFYSTTNHPTHVKVNDEWIEVANPKMDAVIVVYPEEKRAETKVIRKVKKGDFVLIGHNGIRVMPPEKSREAGQLFEFMNSEVSSEKPKEAIIKRIAKEMHEIREEYKKTGTGGIAIVGGPAIIHTGGGPALAKMVELGYIQAILAGNALATHDIESALYGTSLGVNIKTAKPVTGGHKHHIYAINAINDAGNIKNAVESGVLKEGIMYQCIKNNIPYVLAGSIRDDGPIPDVITDSMVAQDKMRTTVMDKKMVIMLSTLLHSVATGNLMPSYIKTVCVDIQPSTVTKLMDRGTSQAIGVVTDVGVFLVLLLKELERLELQE | soluble |
| MVLGTVLLPPNSYGRDQDTSLCCLCTEASESALPDLTEALHRPYGCDVEPQALNEAIRWSSKENLLGATESDPNLFVALYDFVASGDNTLSITKGEKLRVLGYNQNGEWSEVRSKNGQGWVPSNYITPVNSLEKHSWYHGPVSRSAAEYLLSSLINGSFLVRESESSPGQLSISLRYEGRVYHYRINTTADGKVYVTAESRFSTLAELVHHHSTVADGLVTTLHYPAPKCNKPTVYGVSPIHDKWEMERTDITMKHKLGGGQYGEVYVGVWKKYSLTVAVKTLKEDTMEVEEFLKEAAVMKEIKHPNLVQLLGVCTLEPPFYIVTEYMPYGNLLDYLRECNREEVTAVVLLYMATQISSAMEYLEKKNFIHRDLAARNCLVGENHVVKVADFGLSRLMTGDTYTAHAGAKFPIKWTAPESLAYNTFSIKSDVWGKVERDFFLCHFIFFFINALIL | soluble |
| MAQAFVDATWPQAAKAAQSLGVPAHFLVAQAALETGWGKSQIRNKDGTPSYNLFNIKAGSNWTGKVVEARTVEYENGQRKVRVERFRAYDSYEQAFQDYADLVGNSPRYAKVAGKTDGHAFARALQEGGYATDPSYADKLARVINGNALRQRLMASAASARGLEHHHHHH | soluble |
| MAETNKGIEEEVASAFVNHYYHLFDNDRSSLSSLYNPTSLLTFEGQTIYGVDNISNKLKQLPFDQCHHLISTVDSQPSSMAGGCGGILVFVSGSIQLHGEDHPLRFSQVYLLSICNRFEGFIWLKQS | not soluble |
| SGKCYLSLHEHNSSANRGACAQICRRGYTVKDKDSGLELDIENQYIMSPKDLKTIHFINKMMDAGVRVFKIEGRARGPEYVYTVCRCYKEAIEAYCNGTYDEESIGRWDEQLATVFNRGFWDGYYLGQRLGEWTHRYGSGATRQKIYVGKGIKYFSRLGVAEFEIESGELHIGDEIVITGPTTGVIIQKVEEIRYELQTVEKATKGQRISIPVKEKVRPSDKLYRFDKRE | not soluble |
| MGSDKIHHHHHHGDDDDPVVPELNKLTKVSCYKDGASSPLFTADINYTSDGKISNINLGVDKLLFIYSDGKFSVTGIHSGEVIEEYTLSGNVITSKKISQENPYASNEIYVSDEYSYRYSGSNWVLTSWNARWPKEFGTGYEERSYPEYEKYTWENGNVVLYAQSLDSREMRYEYSVAEAPKNFPLRVIGSFSPVGFESVTPLNLLYGIQNRNLPIRAYTYTIPNQSEVKAEYKYTYTTVGDYITGMTIDENDGGTASSYKYTFEYNFAVK | not soluble |
| AVSDQRLSEATLRELEDERQRAGLPEKPEIPEGWTIDRKPGVTHFTMRKSHGDEEIILQLTGEDRSNEEITRTLDVLVVNGGKALVFGMSVEDGEFVINNVCFRHDGKLALDTSAEAQFQKSQLYMGPDLADLEDHLVDSFTSYLSARGVNDTLANFIDQFSLWSEQADYEEWLSSINKFVS | soluble |
| MGSDKIHHHHHHMAKINLIIAETDGAYLKGLVNYISSNFEDTFRITCFTNREYLEKYISSGRISDILLIKTDMFYEGLMKNSIKSIAILSEGGNMDEFNGLPVVKKYQPGEKLCREILNIYYNNNPEVAPCKEVKKQEGSIITLYSPVGGIGKSTIAIEMAKKLSDSNKKVLYLNLEDLQSTLVFFECSTSKNMSDFLYFIKERDENFKEVLKDIVLKDEESGINYFAPVDSVLDIEDLKVDDVKFMLQKLIEVNMYNYIIIDLSSTFNINYKTIFEMSSKIIVPIGQDKLSSVKLQNFLKQLDNLENFSFIQNKYKDNLETIIPHVLLREKKPIIQKIYYDEALESVSSLIYLKNRASTFLRCIDELIMKLL | not soluble |
| GPGSMHPRLSGQGVFPRYGGGWMHQFGHVYALQQELLNAEANNWFRAMELWHTARHEGVAMNVSHYTNILRQCVPPTAWEASLMVLKQMRRENIRPDVVGVGCALAACADANRSEEVEKVFSCFSGKLKLDSICYLALIKAKMSRGGYAEALAVGREQDADGVPFLPHTYTHLLEAAEVADDGEMALELARRMSSEQWPVSDRGREALKKLSTRHHWEEVAEYKQFVAVEDHKLSLPPTLPRG | not soluble |
| MDVTNDDYIRLLSALLPPGPVWSASDPAIAGAAPSLTRVHQRADALMRELDPRTTTELINRWERLCGLPDECIPAGTQTLRQRQQRLDAKVNLAGGINEDFYLAQLAALGRPDATITRYDKSTFTCSSACTDAVNAPEWRYYWQVNMPATTNSTWMTCGDPCDSALRIWGDTVVECVLNKLCPSHTYVIFKYPE | soluble |
| MESGKMAPPKNAPRDALVMAQILKDMGITEYEPRVINQMLEFAFRYVTTILDDAKIYSSHAKKPNVDADDVRLAIQCRADQSFTSPPPRDFLLDIARQKNQTPLPLIKPYAGPRLPPDRYCLTAPNYRLKSLIKKGPNQGRLVPRLSVGAVSSKPTTPTIATPQTVSVPNKVATPMSVTSQRFTVQIPPSQSTPVKPVPATTAVQNVLINPSMIGPKNILITTNMVSSQNTANEANPLKRKHEDDDDNDIM | soluble |
| MSVLDELYREILLDHYQSPRNFGVLPQATKQAGGMNPSCGDQVEVMVLLEGDTIADIRFQGQGCAISTASASLMTEAVKGKKVAEALELSRKFQAMVVEGAPPDPTLGDLLALQGVAKLPARVKCATLAWHALEEALR | soluble |
| SASFDGPKFKMTDGSYVQTKTIDVGSSTDISPYLSLIREDSILNGNRAVIFDVYWDVGFPETETKTKTSGWSLSSVKLSTRNLCLFLRLPKPFHDNLKDLYRFFASKFVTFVGVQIEEDLDLLRENHGLVIRNAINVGKLAAEARGTLVLEFLGTRELAHRVLWSDLGQLDSIEAKWEKAGPEEQLEAAAIEGWLIVNVWDQLSDE | soluble |
| MDPQGYFLWYQVEMPEDRVNDLARELRIRDNVRRVMVVASTTPGRYEVNIVLNPNLDQSQLALEKEIIQRALENYGARVEKVEELGLRRLAYPIAK | soluble |
